Values of other authors as cited in PMC4083100.

Molecular target: FcεRI (Homo sapiens) (UniProt P12319)
Chain of UniProt P12319 (P12319 26-257): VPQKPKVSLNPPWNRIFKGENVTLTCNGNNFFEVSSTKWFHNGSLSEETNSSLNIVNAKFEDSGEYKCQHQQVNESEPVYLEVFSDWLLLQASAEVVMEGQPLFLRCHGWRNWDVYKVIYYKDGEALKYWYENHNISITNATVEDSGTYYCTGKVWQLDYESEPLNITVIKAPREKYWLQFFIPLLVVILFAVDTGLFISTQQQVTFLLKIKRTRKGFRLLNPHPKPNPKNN

IgE (from UniProt P01854)
Kd: < 1 nM
